The values below are quoted from earlier work in patent US6204360A, “Retro-inverso thymosin alpha 1 hybrids” (USA Universe Bioengineering, Inc., priority 1999, dated 2001).

No end group written: not given here.

For this data set the following is noted: Rost, Int. J. Clin. Pharmacol. Ther. 37:51, 1999.

Turning to “thymosin alpha 1 (SDAAVDTSSEITTKDLKEKKEVVEEAEN; ends and bridges not checked; UniProt P06454 2-29, looked up) [TM-alpha1, 28 amino acid acidic peptide purified from thymosin fraction V; immunomodulator]”, the half-life in vivo entry is given as “short half-life in vivo”.
